Experiment [1] addresses T1, 大肠杆菌表达的GST-MIF重组蛋白 (human, UniProt P14174 1-115).
T1 construct: Coating antigen (10 ug/ml) of the ELISA that gave all the dissociation constants; GST is placed N-terminal by the name GST-MIF; also called 人MIF; not shown: GST tag and vector-encoded residues from pET-41a
T1 sequence (looked up): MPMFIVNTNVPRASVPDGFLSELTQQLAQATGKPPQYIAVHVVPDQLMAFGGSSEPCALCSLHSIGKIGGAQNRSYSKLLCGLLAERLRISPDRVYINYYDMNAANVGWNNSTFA
Nature of the experiment: ELISA on coated GST-MIF (10 ug/ml); antibody concentration at 50% of the maximal reading is taken as the dissociation constant.

Experiment [2] has as its target T1, 大肠杆菌表达的GST-MIF重组蛋白. Nature of the experiment: ELISA by the method of Example 1 (coated GST-MIF; concentration at 50% of the maximal reading).

“And” between values parts separate entries of the source, which are not always exact repeats. Equal entries are not always repeated.

B1: 杂交瘤细胞株10C3 CGMCC No.1717分泌的单克隆抗体 (antibody, mouse IgG2b, V domains shown)
VH: QVQLEESGGALVKPGGSLKLSCAASGFTFSTYAMSWVRQTPEKRLEWVATISSGGDYTHYPDSVKGRFTISRDNARNTLYLQMSSLRSEDTAMFYCARPYYGSSYWFYDVWGAGTTVTVSS
VL: DIVLTQTPVSIIASRGEKVTITCRARSSISSTYLHWYQQKPGSSPKLLIYRTSILASGVLDSFSGSGSETSDTLTISCMQDEVAATYYCQQGSSSPLTFGAGTKLELKR
notes: the mouse constant regions are not; Hybridoma supernatant was used in the ELISA and ascites-purified antibody in the cell assays; also called 10C3Ab; anti-MIF
As for B1, the Kd in the experiment with 大肠杆菌表达的GST-MIF重组蛋白 [1] is 3 nM and 0.48 µg/mL.

B2: 人-鼠嵌合抗体ch-10C3 (antibody, V domains shown)
VH: B1 VH
VL: B1 VL
In the experiment with 大肠杆菌表达的GST-MIF重组蛋白 [2], B2 came in with a Kd of 3 nM.

B3: 抗MIF的Fab片段10C3Fab (Fab, V domains shown)
VH: B1 VH
VL: B1 VL
B3 came in with a Kd with 大肠杆菌表达的GST-MIF重组蛋白 [2] of 10 nM.

B4: 抗MIF单链抗体10C3scFV (scFv)
scFv: QVQLEESGGALVKPGGSLKLSCAASGFTFSTYAMSWVRQTPEKRLEWVATISSGGDYTHYPDSVKGRFTISRDNARNTLYLQMSSLRSEDTAMFYCARPYYGSSYWFYDVWGAGTTVTVSSGSSGSGSSGSGSSGSDIVLTQTPVSIIASRGEKVTITCRARSSISSTYLHWYQQKPGSSPKLLIYRTSILASGVLDSFSGSGSETSDTLTISCMQDEVAATYYCQQGSSSPLTFGAGTKLELKR
notes: Heavy and light variable regions joined by a 15-residue Gly/Ser-rich linker; Expressed from pET-26b in BL21 with a 6xHis tag
In the experiment with 大肠杆菌表达的GST-MIF重组蛋白 [2], B4 showed a Kd of 30 nM.

The values are drawn from patent CN1869207A (INST OF BIOPHYSICS CAS, dated 2006).
